Laboratory results reported in PMC9036094, “Antigen-derived peptides engage the ER stress sensor IRE1α to curb dendritic cell cross-presentation” (The Journal of Cell Biology, 2022).
“Also recorded” adds a separate entry of the source.

Test system: IRE1α (XBP1s, pIRE1α) in BMDCs
Test: IRE1α activation in BMDCs (immunoblot)
Format: cell-based, mouse
Description: Figure 1. Antigen pulsing of BMDCs activates IRE1α. (A) BMDCs were pulsed with ovalbumin (starting at 62.5 μg/ml and sequentially doubled) and analyzed by immunoblot (IB) for the indicated markers. (B) BMDCs were pulsed with ovalbumin (starting at 500 μg/ml and sequentially halved) or […] (1 μM), or stimulated with tunicamycin (1 μg/ml) or poly-I:C (25 μg/ml) for 4 h, and analyzed by IB. (C) BMDCs were pulsed with ovalbumin (500 μg/ml) for indicated time points and analyzed by IB. (D) BMDCs were pulsed for 4 h with ovalbumin or lysates derived from the indicated cell lines (500 μg/ml protein) and analyzed by IB. […] (F) Upon removal from bone marrow, total bone marrow cells were transfected with non-targeting control (NTC) or TAP1-targeting gRNAs, along with CRISPR/Cas9 delivery constructs. Cells were then subjected to standard BMDC-differentiation protocol, pulsed with ovalbumin (500 μg/ml) for 4 h, and analyzed by IB. All IB images are representative of at least two similar experiments, and molecular weights represent kD. Source data are available for this figure: SourceData F1.
For purification and differentiation of BMDCs, the femur and tibia bones of C57BL/6 mice were flushed with sterile PBS, and bone marrow cells were then cultured in RPMI1640 media as described above and further supplemented with […] β2-mercaptoethanol (Sigma-Aldrich), 20 ng/ml GM-CSF (BioLegend), and 10 ng/ml IL-4 (BioLegend) for 9 d, with media being replenished every 3 d. Where indicated, Flt3L-BMDCs were similarly generated using media supplemented with 200 ng/ml recombinant mouse Flt3L (PeproTech; [Brasel et al., 2000]). After 9 d of culture, BMDCs were routinely verified to be >90% CD11c^+ MHC-II^high by flow cytometry analysis.
Thapsigargin (Sigma-Aldrich) was used at 100 nM, tunicamycin (Sigma-Aldrich) was used at 5 μg/ml, MG132 (Sigma-Aldrich) was used at 5 μM, Amiloride (Sigma-Aldrich) was used at 10 μM, actinomycin D (Sigma-Aldrich) was used at 4 μg/ml, LPS (Sigma-Aldrich) was used at 10 μg/ml, and poly-I:C (Sigma-Aldrich) was used at 25 μg/ml. Ovalbumin (Sigma-Aldrich), EF-OVA (EndoFit; InvivoGen), […] peptide (Sigma-Aldrich), and human CD4-Fc fusion protein (generated in-house at Genentech) were dissolved in PBS prior to pulsing and used at indicated concentrations.
Cells were lysed in PBS solution supplemented with 1X radioimmunoprecipitation assay buffer (Millipore) and 2X Halt protease-phosphatase inhibitor cocktail (Thermo Fisher Scientific). Upon clearance, samples were analyzed by SDS-PAGE, electrotransferred to nitrocellulose membranes (Invitrogen), and blocked by 5% powdered milk in PBSt (PBS supplemented with 0.1% tween) solution. Development was conducted with ECL reagent (Thermo Fisher Scientific) and imaging was performed with the ChemiDoc ZRS+ imager (Bio-Rad). Antibodies used for Western blot analysis include IRE1α (3294, rabbit; Cell Signaling Technology), β-actin (5125, rabbit; Cell Signaling), GAPDH (97166, mouse; Cell Signaling), ATF6 (66563-1-Ig, mouse; ProteinTech), TAP1 (12341, rabbit; Cell Signaling), CHOP (2895, mouse; Cell Signaling), ATF4 (11815, rabbit; Cell Signaling), ovalbumin (P1-196, rabbit; Thermo Fisher Scientific), human Fc (ab977225, rabbit; Abcam), Myc tag (2272, rabbit; Cell Signaling), and biotin (5597, rabbit; Cell Signaling). IRE1α lumenal domain (mouse), XBP1s (rabbit), and pIRE1α (rabbit) antibodies were generated at Genentech. Secondary antibodies used were for mouse (715-035-150; The Jackson Laboratory) and rabbit (711-035-152; The Jackson Laboratory).

B1: ovalbumin: classical protein antigen ovalbumin (Sigma-Aldrich) (protein)
chain: MGSIGAASMEFCFDVFKELKVHHANENIFYCPIAIMSALAMVYLGAKDSTRTQINKVVRFDKLPGFGDSIEAQCGTSVNVHSSLRDILNQITKPNDVYSFSLASRLYAEERYPILPEYLQCVKELYRGGLEPINFQTAADQARELINSWVESQTNGIIRNVLQPSSVDSQTAMVLVNAIVFKGLWEKAFKDEDTQAMPFRVTEQESKPVQMMYQIGLFRVASMASEKMKILELPFASGTMSMLVLLPDEVSGLEQLESIINFEKLTEWTSSNVMEERKIKVYLPRMKMEEKYNLTSVLMAMGITDVFSSSANLSGISSAESLKISQAVHAAHAEINEAGREVVGSAEAGVDAASVSEEFRADHPFLFCIKHIATNAVLFFGRCVSP
- time of peak IRE1α phosphorylation (4-h pulse, ovalbumin 500 μg/ml): 2 h
- time of peak XBP1s protein (4-h pulse, ovalbumin 500 μg/ml): 2 to 4 h
- IRE1α activation (GM-CSF + IL-4 BMDCs, immunoblot for XBP1s/pIRE1α, in words): concentration- and time-dependent activation of IRE1α; also recorded: much weaker IRE1α activation than did the potent pharmacological ER-stressor tunicamycin; also recorded: only IRE1α exhibited substantial activation
